Assay [1] concerns the target T1, Active MMP-9 enzyme (UniProt P14780 107-707, limits assumed).
T1 construct: Bought as 'Active MMP-9 enzyme' from Calbiochem
Kind of assay: enzyme inhibition of MMP-9 (fluorescent substrate cleavage, inhibitory constants derived from the curves). The procedure: Two enzymatic assays were performed. The first assay measured the enzymatic hydrolysis of fluoresceinated collagen by MMP-9 as a function of time. Fluoresceinated collagen (Molecular Probes, Inc.), at a concentration of 5 μM was added to reaction buffer (50 mM Tris-HCl (pH 7.6), 150 mM NaCl, 5 mM CaCl₂, 0.1 mM NaN₃) and was placed into a Spectrosil quartz fluorometer cuvette. MMP at a concentration of 0.1 μM was mixed with varying amounts of chelating peptide having SEQ ID No. 4 or 6 and incubated at 25° C. for 10 minutes to effect binding. The protein mixture was added to the collagen substrate and mixed quickly. Fluorescence emission intensity at 520 nm was measured as a function of time (excitation wavelength 495 nm) in a Shimadzu RF5301 fluorometer. The fluorescein release assay was used to determine the inhibitory constant (Kᵢ) of the chelating peptide inhibitor ([I]) according to Segel (1993) via the use of Dixon plots (1/v vs. [I]), such that: […]

Assay [2] deals with T1, Active MMP-9 enzyme. Kind of assay: enzyme inhibition of MMP-9 (FRET substrate peptide cleavage, inhibitory constants derived from the curves). As to the method:
FIG. 4 illustrates ChePep-5 regulation of MMP-9 via FRET assay. ChePep-5 is composed of a AFTA combined with a peptide having SEQ ID No. 7. ChePep-5 was incubated with MP-9 for 10 minutes to effect binding. This mixture was added to the FRET substrate peptide in reaction buffer. Fluorescence measurements were made at the indicated times. The curves represent ChepPep-5: MMP-9 molar stoichiometries of 0:1 (closed circles), 0.1:1 (open circles), 0.2:1 (closed squares), 0.3:1 (open squares). Excitation was at 365 nm, and the emission was fixed at 450 nm.
The second assay utilized the technique of fluorescence resonance energy transfer (FRET). The substrate peptide (Calbiochem #444221) comprised seven amino acids, coupled to a carboxyl terminal dinitrophenyl acceptor, and an amino terminal 2-aminobenzo-anthraniloyl (Abz) moiety donor. Cleavage of this substrate by MMP-9 results in the liberation of a fluorescent product (365 nm excitation, 450 nm emission). […] MMP at a concentration of 0.1 μM was mixed with varying amounts of chelating peptide (0, 0.01, 0.02, 0.04, and 0.1 μM) and incubated at 25° C. for 10 minutes to effect binding. The protein mixture was added to the peptide substrate and mixed quickly. Fluorescence intensity as a function of time was measured with a Dynex MFX fluorescence microtiter plate reader. Fluorescence intensity was related back to moles of peptide cleaved by producing a standard curve with an Abz containing non-FRET peptide. Inhibitory constants were derived from the curves and are listed below in Table 2.

The values below come from patent US20030073808A1 (KIMBERLY CLARK WORLDWIDE, published 2003).

Primed or numbered codes have the meaning given here. Where no end group is shown, it is not given here. PSDE = pyridine disulfide ethylenediaminetetraacetic acid; AFTA = 2-amino-4-fluorophenol N,N,O-triacetic acid; AFTA″ = not defined here

T1 sequence (P14780 107-707 limits assumed): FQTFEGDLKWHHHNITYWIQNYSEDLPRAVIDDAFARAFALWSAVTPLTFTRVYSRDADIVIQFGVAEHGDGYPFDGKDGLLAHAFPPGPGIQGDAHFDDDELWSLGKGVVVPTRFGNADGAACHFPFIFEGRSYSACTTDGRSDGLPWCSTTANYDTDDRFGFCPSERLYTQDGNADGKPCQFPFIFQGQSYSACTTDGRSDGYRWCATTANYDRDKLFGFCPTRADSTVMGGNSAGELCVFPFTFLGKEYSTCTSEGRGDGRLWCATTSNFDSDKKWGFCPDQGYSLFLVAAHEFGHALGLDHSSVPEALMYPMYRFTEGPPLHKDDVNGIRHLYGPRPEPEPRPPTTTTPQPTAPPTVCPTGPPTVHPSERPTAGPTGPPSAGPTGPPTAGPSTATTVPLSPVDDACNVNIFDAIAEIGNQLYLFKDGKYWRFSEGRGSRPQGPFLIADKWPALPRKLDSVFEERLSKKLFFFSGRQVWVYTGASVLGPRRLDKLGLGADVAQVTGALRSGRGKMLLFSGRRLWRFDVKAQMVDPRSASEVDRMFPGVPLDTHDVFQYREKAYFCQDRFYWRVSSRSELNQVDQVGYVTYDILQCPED

B1: ChePep-1 (PSDE coupled with the peptide having SEQ ID No. 4) (peptide)
peptide: C(PSDE)SAVPVH
notes: Synthetic TIMP-derived peptide covalently coupled to a small-molecule zinc chelator (PSDE); also called ChepPep-1; zinc chelating peptide
The molecule B1 had a Ki in the assay with Active MMP-9 enzyme [1] of 98 µM.

D(IDA)SAVPVH-NH2 [ChePep-2 (IDA coupled with a peptide having SEQ ID No. 5)] showed an inhibition constant Ki with Active MMP-9 enzyme [2] of 67 µM.

B2: ChePep-6 (AFTA combined with a peptide having SEQ ID No. 8) (peptide)
peptide: {AFTA″}-CTCVP
modifications: cysteine pairing not given here; reading uncertain
notes: also called ChepPep-6; chelating peptide (CP)
In the case of B2, the Ki with Active MMP-9 enzyme [2] turned out to be 125 µM.

IYTAC(PSDE)MSAV (not fully specified (C-terminus)) [ChePep-3 (PSDE combined with a peptide having SEQ ID No. 6)] came in with a Ki with Active MMP-9 enzyme [2] of 350 µM.

In the assay with Active MMP-9 enzyme [2], {AFTA}-VHTHLCD (also called ChepPep-5) [ChePep-5 (AFTA combined with a peptide having SEQ ID No. 7)] came in with a Ki of 221 µM.

A word on the Ki: it is a dissociation constant, usually derived from enzyme kinetics or from competition with a known ligand. Low values mean a stronger hold on the target, high ones a looser hold on the target.
